Source: patent publication US10017546B2 (KOREA ADVANCED INSTITUTE OF SCIENCE AND TECHNOLOGY, priority 2015, dated 2018)
Where two headings read alike, the source gives them in different places.

Key:
biotin-GFP [1] = target: T1, biotin-GFP (Aequorea victoria, UniProt P42212, A206V/E111V/F223Y/F64L/F99S/I128T/I167V/I171V/K158E/K166T/K26E/L221H/M153T/N105K/N149D/N164E/Q80R/S205T/S30R/S65T/T225N/V163A/Y145F/Y39I); settings: for percentage of dissociated biotin conjugate after 10 h incubation with excess biotin / Dissociation rate: Biotin-GFP; for percentage of dissociated biotin conjugate after 10 h incubation with excess biotin: 23° C.; for Dissociation rate: excess biotin; for dissociation of biotin-GFP from mRA mutants (in words): mutants at E115, Q46, S23, biotin addition, 45° C. for 30 min
Protocol: After incubation at the indicated temperature (23° C., 37° C., or 45° C.) for varying time points (between 0 to 10 h), protein-conjugate mixtures were loaded onto a 15% native polyacrylamide gel. […] Data as ln(fraction bound) versus time and fitting the data to a straight line by linear regression.

biotin-AP = assay: Gel-based off-rate measurement against biotin-AP peptide; type: binding; settings: 37° C., excess biotin
biotin-GFP [2] = target: T1, biotin-GFP; settings: 15% native-PAGE
Description: To monomerize rhizavidin, the present inventors introduced various numbers (one, six, and ten) of charged and hydrophilic amino acids, which have long side chains, at the dimeric interface (FIG. 1(a) and FIG. 4).

biotin-DNA = assay: Gel-based off-rate measurement against biotin-DNA-fluorescein; type: binding; settings: for percentage of dissociated biotin conjugate after 10 h incubation with excess biotin: 23° C.
biotin-protein G = assay: Gel-based off-rate measurement against biotin-protein G; type: binding; settings: 37° C., excess biotin
[3] = immobilized biotin or biotin-GFP, avidin proteins 5 μM
Protocol: Surface Plasmon Resonance (SPR) Analysis
SPR tests were performed in a Biacore 3000 instrument using dextran CM5 gold chips (GE Healthcare) and a PBS buffer as a running solution.

HeLa cells = assay: Clustering and internalization of biotinylated cell-surface proteins; type: cell-based; settings: Cy5-labeled avidin proteins, 37° C.
Protocol: Following biotinylation, the cells were washed twice with cold PBS-CM, treated with 100 mM glycine in PBS-CM for blocking, and washed again twice with cold PBS. […] Unbound avidin proteins were removed, and media was replaced with pre-warmed DMEM (37° C.). Cells were incubated for 5, 10, or 30 m at 37° C. Cells were washed, and fixed with 4% formaldehyde in PBS for confocal imaging (ZEISS, LSM510 META). To visualize endosome or lysozome-specific proteins, cells were fixed, permeabilized, and incubated with a primary antibody: anti-Rab11 (a GTPase of recycling endosome, Abcham) or anti-LAM P1 (Lysosomal-associated membrane protein 1, Abcham). Afterward, cells were incubated with a fluorescent secondary antibody (goat anti-rabbit 555, Abcham), and images were acquired with a confocal microscopy (ZEISS, LSM510 META).

[4] = Stability / aggregation of monomerized proteins in buffered solutions; type: physicochemical; settings: up to 1 mg/ml where stated

Molecule	percentage of dissociated biotin conjugate after 10 h incubation with excess biotin (biotin-GFP [1])	Dissociation rate (biotin-GFP [1]; 37° C.)	Dissociation rate (biotin-GFP [1]; 45° C.)	Dissociation rate (biotin-AP)	complexes formed with biotin-GFP (biotin-GFP [2])	percentage of dissociated biotin conjugate after 10 h incubation with excess biotin (biotin-DNA)	Dissociation rate (biotin-protein G)	dissociation from surface-bound biotin conjugates by SPR [3]	percentage of dissociated biotin conjugate after 10 h incubation with excess biotin (biotin-GFP [1]; listed as MA)	dissociation of biotin-GFP from mRA mutants (in words) (biotin-GFP [1])	percentage of dissociated biotin conjugate after 10 h incubation with excess biotin (biotin-DNA; listed as monodin)	Dissociation rate (biotin-DNA; 37° C., excess biotin)	incubation time after which avidin protein was internalized (HeLa cells)	biotin-GFP dissociated after biotin addition (biotin-GFP [1]; excess free biotin, 37° C. for 30 min, native-PAGE)	stability / aggregation in buffered solutions [4]
Rhizavidin (RA): natural dimeric avidin protein from Rhizobium etli; core rhizavidin SEQ ID NO: 1 (protein, amino acid sequence of truncated Rhizavidin) FDASNFKDFSSIASASSSWQNQSGSTMIIQVDSFGNVSGQYVNRAQGTGCQNSPYPLTGRVNGTFIAFSVGWNNSTENCNSATGWTGYAQVNGNNTEIVTSWNLAYEGGSGPAIEQGQDTFQYVPTTE	18 ± 3.0% for 10 h*	5.0 ± 0.1 × 10^−5 s^−1	6.0 ± 0.6 × 10^−5 s^−1	4.9 ± 0.7 × 10^−5 s^−1	two separated complexes	48 ± 6.1% for 10 h*	3.2 ± 0.8 × 10^−5 s^−1								
Monodin (MA): monomeric avidin-like protein of SEQ ID NO: 3; mRA further carrying S23H, Q46E and E115W (protein, amino acid sequence of MA, mRA further carrying S23H, Q46E and E115W) FDASNFKDFSSIASASSSWQNQHGSTMIIQVDSFGNVSGQYVNRAEGTGCQNSPYPLTGRVNGTFIDFSVKWNNSTENCNSNTQWTGYAQVNGNNTEIVTRWNLKYEGGSGPAIWQGQDTFQYVPTTE	6.7 ± 1.1% for 10 h*	2.3±0.1×10^−5 s^−1	6.4±0.2×10^−5 s^−1	5.1 ± 0.7 × 10^−5 s^−1		22 ± 6.0% for 10 h*	4.6 ± 1.5 × 10^−5 s^−1	not observed	less than 7%	highly slowed off-rate	22%	2.7±0.3×10^−5 s^−1	30 min		
mRA: monomeric rhizavidin with six interfacial mutations (SEQ ID NO: 2) (protein, amino acid sequence of mRA) FDASNFKDFSSIASASSSWQNQSGSTMIIQVDSFGNVSGQYVNRAQGTGCQNSPYPLTGRVNGTFIDFSVKWNNSTENCNSNTQWTGYAQVNGNNTEIVTRWNLKYEGGSGPAIEQGQDTFQYVPTTE														Over 40%	stable without any aggregation
mRAWW: mRA with two tryptophan mutations (E115W and S23W) (protein) FDASNFKDFSSIASASSSWQNQWGSTMIIQVDSFGNVSGQYVNRAQGTGCQNSPYPLTGRVNGTFIDFSVKWNNSTENCNSNTQWTGYAQVNGNNTEIVTRWNLKYEGGSGPAIWQGQDTFQYVPTTE										the least dissociation of biotin-GFP					highly prone to aggregation
